Reference: US20060046271A1 (VANDERBILT UNIVERSITY, published 2006)

Target: α2bβ3 receptor (mouse (endogenous, tumor-bearing …, UniProt Q9QUM0 32-1033; O54890 26-787)
Experiment: cell-based or functional assay

Sequence of α2bβ3 receptor (mouse (Q9QUM0 32-1033, chain 1 of 2): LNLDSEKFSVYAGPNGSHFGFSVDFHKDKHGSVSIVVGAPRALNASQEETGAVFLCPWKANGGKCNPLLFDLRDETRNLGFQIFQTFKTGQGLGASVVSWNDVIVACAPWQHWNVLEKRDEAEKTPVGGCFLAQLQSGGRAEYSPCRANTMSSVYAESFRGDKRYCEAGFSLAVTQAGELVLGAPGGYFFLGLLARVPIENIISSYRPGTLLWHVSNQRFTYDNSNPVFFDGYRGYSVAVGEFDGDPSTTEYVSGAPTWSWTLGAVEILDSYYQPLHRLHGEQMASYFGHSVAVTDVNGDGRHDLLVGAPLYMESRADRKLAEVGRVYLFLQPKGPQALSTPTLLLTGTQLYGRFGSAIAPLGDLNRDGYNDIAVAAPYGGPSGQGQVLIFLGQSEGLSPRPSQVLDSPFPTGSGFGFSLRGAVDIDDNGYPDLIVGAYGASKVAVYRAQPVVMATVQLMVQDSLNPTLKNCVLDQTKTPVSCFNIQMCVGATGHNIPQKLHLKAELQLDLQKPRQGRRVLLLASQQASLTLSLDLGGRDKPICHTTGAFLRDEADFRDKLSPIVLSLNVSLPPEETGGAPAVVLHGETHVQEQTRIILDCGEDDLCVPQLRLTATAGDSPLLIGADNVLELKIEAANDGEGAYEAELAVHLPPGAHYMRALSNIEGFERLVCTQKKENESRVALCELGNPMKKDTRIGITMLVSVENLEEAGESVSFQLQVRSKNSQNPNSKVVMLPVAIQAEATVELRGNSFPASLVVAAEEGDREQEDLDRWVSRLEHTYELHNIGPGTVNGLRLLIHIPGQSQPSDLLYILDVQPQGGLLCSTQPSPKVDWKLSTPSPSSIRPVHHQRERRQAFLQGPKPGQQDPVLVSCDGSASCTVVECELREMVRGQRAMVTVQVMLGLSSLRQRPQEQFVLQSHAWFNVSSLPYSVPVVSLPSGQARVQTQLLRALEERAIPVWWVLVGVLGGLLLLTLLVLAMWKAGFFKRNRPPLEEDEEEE
Sequence of α2bβ3 receptor (mouse (O54890 26-787, chain 2 of 2): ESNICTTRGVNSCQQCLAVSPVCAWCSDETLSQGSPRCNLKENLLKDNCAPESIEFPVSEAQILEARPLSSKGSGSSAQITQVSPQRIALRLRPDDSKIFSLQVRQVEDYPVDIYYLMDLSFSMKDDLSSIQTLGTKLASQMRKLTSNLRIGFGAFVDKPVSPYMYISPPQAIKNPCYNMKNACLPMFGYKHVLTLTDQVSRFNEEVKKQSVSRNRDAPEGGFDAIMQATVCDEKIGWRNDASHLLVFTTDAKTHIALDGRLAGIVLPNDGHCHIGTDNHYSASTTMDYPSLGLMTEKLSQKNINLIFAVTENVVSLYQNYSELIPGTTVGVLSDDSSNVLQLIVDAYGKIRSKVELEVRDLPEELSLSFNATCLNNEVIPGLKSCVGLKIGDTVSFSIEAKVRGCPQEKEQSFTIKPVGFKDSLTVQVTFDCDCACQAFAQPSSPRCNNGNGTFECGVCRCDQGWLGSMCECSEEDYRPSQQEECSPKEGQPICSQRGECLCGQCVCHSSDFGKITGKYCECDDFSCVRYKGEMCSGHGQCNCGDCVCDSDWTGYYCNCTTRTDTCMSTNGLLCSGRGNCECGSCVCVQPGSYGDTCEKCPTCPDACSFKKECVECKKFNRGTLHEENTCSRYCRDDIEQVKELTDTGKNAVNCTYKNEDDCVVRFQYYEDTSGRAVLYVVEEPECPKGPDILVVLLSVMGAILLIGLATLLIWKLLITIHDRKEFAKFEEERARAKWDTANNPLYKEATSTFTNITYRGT

B1: Phage encoding SLRGDGSSV (SEQ ID NO: 2) on the capsid protein (peptide)
peptide: MASMTGGQQMGTNQGKGVVAAGDKLALFLKVFGGEVLTAFARTSVTTSRHMVRSISSGKSAQFPVLGRTQAAYLAPGENLDDKRKDIKHTEKVITIDGLLTADVLIYDIEDAMNHYDVRSEYTSQLGESLAMAADGAVLAEIAGLCNVESKYNENIEGLGTATVIETTQNKAALTDQVALGKEIIAALTKARAALTKNYVPAADRVFYCDPDSYSAILAALMPNAANYAALIDPEKGSIRNVMGFEVVEVPHLTAGGAGTAREGTTGQKHVFPANKGEGNVKVAKDNVIGLFMHRSAVGTVKLRDLALERARRANFQADQIIAKYAMGHGGLRPEAAGAVVFQSGVMLNSLRGDGSSV
phage binding in tumor (phage recovered, quantified by plaque formation): 4 fold
